Values of other authors, collected in paper PMC5758107.
Several values for one entry are separate records, joined by “and”; a condition that tells them apart may be missing. Equal entries are not always repeated.

Target: Foc ribosome-nascent chain complex (Escherichia coli) (UniProt P68699)
Test: fluorescence correlation spectroscopy

Chain of UniProt P68699 (P68699 whole entry, one chain of several): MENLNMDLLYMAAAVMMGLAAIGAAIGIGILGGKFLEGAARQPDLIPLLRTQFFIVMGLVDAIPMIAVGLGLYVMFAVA

YidC (from UniProt P25714)
Kd: 210 nM and 85 nM
